In patent US20170044240A1:

Biological target: HIV envelope protein on HIV-infected cells (HIV)
Experiment: cell-based or functional assay

Substance: anti-HIV chimeric antigen receptor comprising scFv derived from PGT128 (PGT128 CAR)
- HIV-infected cells killed at 48 hours, against CARCD19 T-cells: 56%
